# Assay results published in PMC7022936.
# System: DcGliZ full-length (Dichotomomyces cejpii FS110)
# Test: SPR
# Conditions: SPR: HBS-EP (10 mM HEPES pH 7.4, 150 mM NaCl, 0.005% P20), 22 C; EMSA: Beyotime chemiluminescent kit, 5 uL of 1 uM probe + 2 uL protein (~1 mg/mL in Methods …)
row,Sequence,Kd [µM]
1,GTTTCTATGTCTATATCGGAGGAGTGATCAACGGCGTCCGAAAATTCGGCCCGCGGCTGTCTTAGGGCTGGCCTGCAGGTGTAGGGTTCATTATGAAAGACTGGTAGTATTATGCTGCTATTTAGTCAAAAGCAGAAGAACAGTTTGTCTTTAGACCTTGAATAGATATCTGTCAAGACAAGAGCCAAGAAAGTCCCATCACCATGGCAGACATGACCGAACGACCTTCTGATCTCGTTGTGGACAGGCTGGTTCTCTTCG (double strand) [pG (gliG promoter)],0.16
2,TAGTCTATCACTGAACAGTTGAATGAATTTGTTTCAAGACAGCTAAAGCTCCATTCTAGCCGTACGTACTGGTAGTTCTCCGCATAGAAACATATATCTCTCTGCTTGGTCAAAGTCAGGTATCGCCGACAAGTCTTAATATCTGCAGAGTATTCGGTGACCGAAATAGGGTCGGAATATAAGCCATATATATCACTGTTCTGGAAATCAAGAAAATATAACAGTTGAATACTCACTTTTCTAACATTCCAACAATCAGTTGAGCTCGATCACA (double strand) [pM (gliM promoter)],0.162
3,TTACTTCTTGGTCTACTCCGTATTGTGAATCGAAATGAGATAGAAGTATAGTTCTACTGTACTGGTTTCTATCTGCTTAAAATAAATACAATTGTGCCTTCTATACAGATCAGTATGTAGAATGAACTGATAGACCTCCAGGAGGTTCTTCCTCCGAGCCTGCAACGCCCAAGAGGAGAACTGTGCATACGCCAGGACAGATTTTCGGCCTCCGAAAAGGACTGAGGATAGTATCTGCCATGTTTATATATAACTGAGGGAATAGACCAGGTAGATAACAGCAAAATCAACTAAACATCATC (double strand) [pN (gliN promoter)],0.104
